# Measured values: article PMC11044105, “Overcoming Lot-to-Lot Variability in Protein Activity Using Epitope-Specific Calibration-Free Concentration Analysis” (Analytical Chemistry, 2024)
# B1: NISTmAb 8671 (antibody, V domains shown)
# VH: QVTLRESGPALVKPTQTLTLTCTFSGFSLSTAGMSVGWIRQPPGKALEWLADIWWDDKKHYNPSLKDRLTISKDTSKNQVVLKVTNMDPADTATYYCARDMIFNFYFDVWGQGTTVTVSS
# VL: DIQMTQSPSTLSASVGDRVTITCSASSRVGYMHWYQQKPGKAPKLLIYDTSKLASGVPSRFSGSGSGTEFTLTISSLQPDDFATYYCFQGSGYPFTFGGGTKVEIK
# Target: T1, ProteinA (UniProt P38507)
# T1 construct: the form on the sensor is not described; Sensor-chip Protein A is probably a recombinant form; also called ProteinA sensor chip; ProteinA-CM5; source: on SPR sensor chips (ProteinA chip or ProteinA-conjugated CM5 chip)
# Assay: SPR; calibration-free concentration analysis (CFCA) on Biacore T200, 1x PBST; NISTmAb 8671 as analyte over ProteinA/ProteinG sensors to assign form factors
# Settings: both partners purified
binder,measurement,value
B1,binding result,binds
